Experimental data as given in patent US20200361992A1 (PROTAGONIST THERAPEUTICS, published 2020).
Starred links: 1 amine or outer side, 2 acyl side, 3 side chain; linkers in the order of their positions; H or OH if unused. Positions of bridges follow the written chain, without caps; N, C: chain ends. Non-standard residues stand in square brackets, D forms with d. Groups on a side chain read outwards from the residue. *: point of attachment. PEG12 = NCCOCCOCCOCCOCCOCCOCCOCCOCCOCCOCCOCCOCCC(=O)O; Dip = N[C@H](C(=O)O)C(c1ccccc1)c1ccccc1; NPC = nipecotic acid (L-nipecotic acid); γGlu = O=C(O)[C@H](CCC(=O)[*:2])N[*:1]; Palmitoyl = CCCCCCCCCCCCCCCC(=O)*; NMeF = CN[C@@H](Cc1ccccc1)C(=O)O; αMeF = C[C@](N)(Cc1ccccc1)C(=O)O; β3hF = N[C@H](CC(=O)O)Cc1ccccc1; Isovaleryl = CC(C)CC(=O)*

T1: human ferroportin (SLC40A1) fused in frame with the GFP protein, stably expressed in HEK293 cells (human, UniProt Q9NP59 1-571)
T1 sequence (looked up): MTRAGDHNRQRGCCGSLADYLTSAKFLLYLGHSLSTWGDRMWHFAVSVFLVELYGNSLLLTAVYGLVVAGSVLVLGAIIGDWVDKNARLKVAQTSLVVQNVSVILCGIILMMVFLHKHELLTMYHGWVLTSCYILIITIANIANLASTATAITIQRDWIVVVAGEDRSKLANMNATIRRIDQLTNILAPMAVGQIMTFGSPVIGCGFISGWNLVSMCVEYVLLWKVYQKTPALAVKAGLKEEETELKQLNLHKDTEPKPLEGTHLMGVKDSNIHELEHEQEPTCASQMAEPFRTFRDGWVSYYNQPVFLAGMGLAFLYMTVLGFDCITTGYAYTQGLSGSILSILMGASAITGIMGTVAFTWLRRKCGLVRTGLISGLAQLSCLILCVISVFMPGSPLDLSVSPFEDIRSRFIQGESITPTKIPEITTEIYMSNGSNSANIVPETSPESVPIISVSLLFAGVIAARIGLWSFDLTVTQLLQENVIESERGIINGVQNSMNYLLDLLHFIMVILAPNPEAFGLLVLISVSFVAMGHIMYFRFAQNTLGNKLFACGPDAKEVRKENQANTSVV

B1: Compd ID 212 (peptide)
peptide: Isovaleryl-DTHFPCI[dK]([γGlu-Palmitoyl])[NMeF]GC-NH2
modifications: disulfide 6-11
SMILES: CCCCCCCCCCCCCCCC(=O)N[C@@H](CCC(=O)NCCCC[C@H]1NC(=O)[C@H]([C@@H](C)CC)NC(=O)[C@@H](NC(=O)[C@@H]2CCCN2C(=O)[C@H](Cc2ccccc2)NC(=O)[C@H](Cc2c[nH]cn2)NC(=O)[C@@H](NC(=O)[C@H](CC(=O)O)NC(=O)CC(C)C)[C@@H](C)O)CSSC[C@@H](C(N)=O)NC(=O)CNC(=O)[C@H](Cc2ccccc2)N(C)C1=O)C(=O)O
B2: Compd ID 214 (peptide)
peptide: Isovaleryl-DTHFPCIK([γGlu-Palmitoyl])[β3hF]C-NH2
modifications: disulfide 6-10
SMILES: CCCCCCCCCCCCCCCC(=O)N[C@@H](CCC(=O)NCCCC[C@@H]1NC(=O)[C@H]([C@@H](C)CC)NC(=O)[C@@H](NC(=O)[C@@H]2CCCN2C(=O)[C@H](Cc2ccccc2)NC(=O)[C@H](Cc2c[nH]cn2)NC(=O)[C@@H](NC(=O)[C@H](CC(=O)O)NC(=O)CC(C)C)[C@@H](C)O)CSSC[C@@H](C(N)=O)NC(=O)C[C@H](Cc2ccccc2)NC1=O)C(=O)O
B3: Compd ID 215 (peptide)
peptide: Isovaleryl-DTHFPCIK([γGlu-Palmitoyl])[αMeF]C-NH2
modifications: disulfide 6-10
SMILES: CCCCCCCCCCCCCCCC(=O)N[C@@H](CCC(=O)NCCCC[C@@H]1NC(=O)[C@H]([C@@H](C)CC)NC(=O)[C@@H](NC(=O)[C@@H]2CCCN2C(=O)[C@H](Cc2ccccc2)NC(=O)[C@H](Cc2c[nH]cn2)NC(=O)[C@@H](NC(=O)[C@H](CC(=O)O)NC(=O)CC(C)C)[C@@H](C)O)CSSC[C@@H](C(N)=O)NC(=O)[C@](C)(Cc2ccccc2)NC1=O)C(=O)O
B4: Compd ID 216 (peptide)
peptide: Isovaleryl-DTH[Dip]PCIK([γGlu-Palmitoyl])[αMeF]C-NH2
modifications: disulfide 6-10
SMILES: CCCCCCCCCCCCCCCC(=O)N[C@@H](CCC(=O)NCCCC[C@@H]1NC(=O)[C@H]([C@@H](C)CC)NC(=O)[C@@H](NC(=O)[C@@H]2CCCN2C(=O)[C@@H](NC(=O)[C@H](Cc2c[nH]cn2)NC(=O)[C@@H](NC(=O)[C@H](CC(=O)O)NC(=O)CC(C)C)[C@@H](C)O)C(c2ccccc2)c2ccccc2)CSSC[C@@H](C(N)=O)NC(=O)[C@](C)(Cc2ccccc2)NC1=O)C(=O)O
B5: Compd ID 217 (peptide)
peptide: Isovaleryl-DTH[αMeF]PCIK([γGlu-Palmitoyl])[αMeF]C-NH2
modifications: disulfide 6-10
SMILES: CCCCCCCCCCCCCCCC(=O)N[C@@H](CCC(=O)NCCCC[C@@H]1NC(=O)[C@H]([C@@H](C)CC)NC(=O)[C@@H](NC(=O)[C@@H]2CCCN2C(=O)[C@](C)(Cc2ccccc2)NC(=O)[C@H](Cc2c[nH]cn2)NC(=O)[C@@H](NC(=O)[C@H](CC(=O)O)NC(=O)CC(C)C)[C@@H](C)O)CSSC[C@@H](C(N)=O)NC(=O)[C@](C)(Cc2ccccc2)NC1=O)C(=O)O
B6: Compd ID 218 (peptide)
peptide: Isovaleryl-DTH[NMeF]PCIK([γGlu-Palmitoyl])[αMeF]C-NH2
modifications: disulfide 6-10
SMILES: CCCCCCCCCCCCCCCC(=O)N[C@@H](CCC(=O)NCCCC[C@@H]1NC(=O)[C@H]([C@@H](C)CC)NC(=O)[C@@H](NC(=O)[C@@H]2CCCN2C(=O)[C@H](Cc2ccccc2)N(C)C(=O)[C@H](Cc2c[nH]cn2)NC(=O)[C@@H](NC(=O)[C@H](CC(=O)O)NC(=O)CC(C)C)[C@@H](C)O)CSSC[C@@H](C(N)=O)NC(=O)[C@](C)(Cc2ccccc2)NC1=O)C(=O)O
B7: Compd ID 219 (peptide)
peptide: Isovaleryl-DTH[β3hF]PCIK([γGlu-Palmitoyl])[αMeF]C-NH2
modifications: disulfide 6-10
SMILES: CCCCCCCCCCCCCCCC(=O)N[C@@H](CCC(=O)NCCCC[C@@H]1NC(=O)[C@H]([C@@H](C)CC)NC(=O)[C@@H](NC(=O)[C@@H]2CCCN2C(=O)C[C@H](Cc2ccccc2)NC(=O)[C@H](Cc2c[nH]cn2)NC(=O)[C@@H](NC(=O)[C@H](CC(=O)O)NC(=O)CC(C)C)[C@@H](C)O)CSSC[C@@H](C(N)=O)NC(=O)[C@](C)(Cc2ccccc2)NC1=O)C(=O)O
B8: Compd ID 220 (peptide)
peptide: Isovaleryl-DTHWPCIK([γGlu-Palmitoyl])[αMeF]C-NH2
modifications: disulfide 6-10
SMILES: CCCCCCCCCCCCCCCC(=O)N[C@@H](CCC(=O)NCCCC[C@@H]1NC(=O)[C@H]([C@@H](C)CC)NC(=O)[C@@H](NC(=O)[C@@H]2CCCN2C(=O)[C@H](Cc2c[nH]c3ccccc23)NC(=O)[C@H](Cc2c[nH]cn2)NC(=O)[C@@H](NC(=O)[C@H](CC(=O)O)NC(=O)CC(C)C)[C@@H](C)O)CSSC[C@@H](C(N)=O)NC(=O)[C@](C)(Cc2ccccc2)NC1=O)C(=O)O
B9: Compd ID 222 (peptide)
peptide: Isovaleryl-DTHFPCIK([PEG12-Palmitoyl])FC-NH2
modifications: disulfide 6-10
SMILES: CCCCCCCCCCCCCCCC(=O)NCCOCCOCCOCCOCCOCCOCCOCCOCCOCCOCCOCCOCCC(=O)NCCCC[C@@H]1NC(=O)[C@H]([C@@H](C)CC)NC(=O)[C@@H](NC(=O)[C@@H]2CCCN2C(=O)[C@H](Cc2ccccc2)NC(=O)[C@H](Cc2c[nH]cn2)NC(=O)[C@@H](NC(=O)[C@H](CC(=O)O)NC(=O)CC(C)C)[C@@H](C)O)CSSC[C@@H](C(N)=O)NC(=O)[C@H](Cc2ccccc2)NC1=O
B10: Compd ID 223 (peptide)
peptide: Isovaleryl-DTHFPCIK([γGlu-Palmitoyl])FC-NH2
modifications: disulfide 6-10
SMILES: CCCCCCCCCCCCCCCC(=O)N[C@@H](CCC(=O)NCCCC[C@@H]1NC(=O)[C@H]([C@@H](C)CC)NC(=O)[C@@H](NC(=O)[C@@H]2CCCN2C(=O)[C@H](Cc2ccccc2)NC(=O)[C@H](Cc2c[nH]cn2)NC(=O)[C@@H](NC(=O)[C@H](CC(=O)O)NC(=O)CC(C)C)[C@@H](C)O)CSSC[C@@H](C(N)=O)NC(=O)[C@H](Cc2ccccc2)NC1=O)C(=O)O
B11: Compd ID 224 (peptide)
peptide: Isovaleryl-DTHFPCI[dK]([PEG12-Palmitoyl])FKC-NH2
modifications: disulfide 6-11
SMILES: CCCCCCCCCCCCCCCC(=O)NCCOCCOCCOCCOCCOCCOCCOCCOCCOCCOCCOCCOCCC(=O)NCCCC[C@H]1NC(=O)[C@H]([C@@H](C)CC)NC(=O)[C@@H](NC(=O)[C@@H]2CCCN2C(=O)[C@H](Cc2ccccc2)NC(=O)[C@H](Cc2c[nH]cn2)NC(=O)[C@@H](NC(=O)[C@H](CC(=O)O)NC(=O)CC(C)C)[C@@H](C)O)CSSC[C@@H](C(N)=O)NC(=O)[C@H](CCCCN)NC(=O)[C@H](Cc2ccccc2)NC1=O
B12: Compd ID 225 (peptide)
peptide: Isovaleryl-DTHFPCI[dK]([PEG12-Palmitoyl])F[dK]C-NH2
modifications: disulfide 6-11
SMILES: CCCCCCCCCCCCCCCC(=O)NCCOCCOCCOCCOCCOCCOCCOCCOCCOCCOCCOCCOCCC(=O)NCCCC[C@H]1NC(=O)[C@H]([C@@H](C)CC)NC(=O)[C@@H](NC(=O)[C@@H]2CCCN2C(=O)[C@H](Cc2ccccc2)NC(=O)[C@H](Cc2c[nH]cn2)NC(=O)[C@@H](NC(=O)[C@H](CC(=O)O)NC(=O)CC(C)C)[C@@H](C)O)CSSC[C@@H](C(N)=O)NC(=O)[C@@H](CCCCN)NC(=O)[C@H](Cc2ccccc2)NC1=O
B13: Compd ID 227 (peptide)
peptide: Isovaleryl-DTHFPCIK([γGlu-Palmitoyl])FKC-NH2
modifications: disulfide 6-11
SMILES: CCCCCCCCCCCCCCCC(=O)N[C@@H](CCC(=O)NCCCC[C@@H]1NC(=O)[C@H]([C@@H](C)CC)NC(=O)[C@@H](NC(=O)[C@@H]2CCCN2C(=O)[C@H](Cc2ccccc2)NC(=O)[C@H](Cc2c[nH]cn2)NC(=O)[C@@H](NC(=O)[C@H](CC(=O)O)NC(=O)CC(C)C)[C@@H](C)O)CSSC[C@@H](C(N)=O)NC(=O)[C@H](CCCCN)NC(=O)[C@H](Cc2ccccc2)NC1=O)C(=O)O
B14: Compd ID 501 (peptide)
chain: DTHFPCIKF
modifications: N-terminal isovaleric acid on each monomer; the two monomers linked through K-Lys[isoGlu-Palm]-NH2
B15: Compd ID 502 (peptide)
chain: DTHFPCIKF
modifications: N-terminal isovaleric acid on each monomer; the two monomers linked through [D-Lys]-Lys[isoGlu-Palm]-NH2
B16: Compd ID 503 (peptide)
chain: DTHFPCIKF
modifications: N-terminal isovaleric acid on each monomer; D-Lys 8; the two monomers linked through Lys[isoGlu-Palm]-NH2

Biological target: T1, human ferroportin (SLC40A1) fused in …
Assay: cell-based or functional assay

Binder | FPN IC50 [nM]
B1 | 403
B2 | 36
B3 | 96
B4 | 16
B5 | > 3000
B6 | > 3000
B7 | 182
B8 | 871
Isovaleryl-DTHF[NPC]CIK([γGlu-Palmitoyl])[αMeF]C-NH2 (disulfide 6-10) [Compd ID 221] | 79
B9 | 4
B10 | 47
B11 | 33
B12 | 26
Isovaleryl-DTHFPCI[dK]([PEG12-Palmitoyl])F[dR]C-NH2 (disulfide 6-11; not fully specified) [Compd ID 226] | 23
B13 | 114

Biological target: T1, human ferroportin (SLC40A1) fused in …
Assay: cell-based or functional assay
Remark: another data set of the same source

Binder | FPN IC50 [nM]
B14 | 28
B15 | 33
B16 | 21
